Here are results for one molecule from patent US10704056B2, “Constitutively active ABA receptor mutants” (The Regents of the University of California, priority 2011, dated 2020).

Experiment [1] deals with aba2-1 mutant seeds. Kind of experiment: Germination of aba2-1 background seeds on paclobutrazol or NaCl. As to conditions: 35S-driven transgene, germination 72 hours. The experiment is classed as in vivo, Arabidopsis. An excerpt:
As a further test of the ability of PYL2^CA3 to activate ABA signaling in vivo, we examined the ability of this allele to revert phenotypes caused by ABA deficiency, reasoning that effective activation of the ABA pathway should suppress phenotypes observed in the aba2 mutant. […] To test this, we examined the germination of various genotypes on paclobutrazol, an inhibitor of GA biosynthesis. Wild-type seed germination is blocked by paclobutrazol treatment but aba2 mutants germinate due to defects in ABA-induced seed dormancy. We also examined the germination of various genotypes in the presence of NaCl, which, like paclobutrazole, inhibits seed germination in an ABA- and aba2-dependent manner (Gonzalez-Guzman M. et al. (2002) Plant Cell 14(8):1833-1846; Leon-Kloosterziel K M, et al. (1996) Plant J 10 (4):655-661). […] Thus, expression of PYL2^CA3 in developing seeds is sufficient to activate an ABA-dependent physiological process despite the depleted ABA levels present in the aba2 background.
Germination tests on paclobutrazol (Wako Chemicals, Japan) and NaCl were conducted as following. Columbia, aba2-1, aba2-1; 35S::GFP-PYL2 and aba2-1; 35S::GFP-PYL2″^3 seeds were surface sterilized and plated onto ⅓ MS agar media containing 25, 50 or 100 μM paclobutrazol or 0, 50, 200, 250 mM NaCl. Control wells contained ⅓ MS agar and 0.1% DMSO, the carrier solvent for paclobutrazol. The seeds were stratified for four days in darkness and then transferred to continuous illumination at room temperature (23° C.). Germination was assayed after 72 hours; seeds showing radicals at least ½ seed length or greater were scored as positive. Each experiment was performed in triplicate; experiments were performed on seeds that were ˜6-months post-harvest.

Experiment [2] has as its system ABA-regulated genes Em6, LEA and Rd29b. Description: qRT-PCR of ABA-regulated genes in imbibed seeds. As to conditions: seeds imbibed 32 hours, no ABA treatment; 35S-driven lines. The experiment is classed as in vivo, Arabidopsis. The protocol:
To investigate if other ABA responses are affected in the PYL2^CA3 lines, we profiled the expression levels of several ABA-regulated genes using quantitative RT-PCR (qRT-PCR). For these experiments, seeds of Col, 35S::PYL2, and two independent 35S:: PYL2^CA3 transgenic lines were imbibed for 32 hours in either water or 5 μM ABA at room temperature under continuous illumination, after which RNA was isolated using Concert™ Plant RNA Reagent and utilized in qRT-PCR reactions using primers for the ABA-regulated genes Em6 (At2g40170), LEA (At2g21490), and Rd29b (At5g52300). Biological duplicates with triple technical replicate measurements were conducted and gene expression levels were determined. […] Real-time quantitative PCR analysis was performed by ΔΔCt method of relative quantification. […]
Wild type or transgenic lines were imbibed for 32 hours in either water or 5 μM ABA at room temperature under continuous illumination, after which RNA was isolated using Concert™ Plant RNA Reagent followed by LiCl2 precipitation and DNase treated using RNase-free DNAse (Ambion). […] Biological duplicates with triple technical replicate measurements were conducted and gene expression levels were determined. […] Real-time quantitative PCR analysis was performed by ΔΔCt method of relative quantification. […]
Background: Real-time PCR tracks product formation cycle by cycle.

B1: PYL2^CA3: PYL2 mutant (H65P, V87F, F165V); expressed in plants as 35S-driven GFP fusion (protein)
chain: HHHHHHMSSSPAVKGLTDEEQKTLEPVIKTYHQFEPDPTTCTSLITQRIHAPASVVWPLIRRFDNPERYKPFVKRCRLISGDGDVGSVREVTFISGLPASTSTERLEFVDDDHRVLSFRVVGGEHRLKNYKSVTSVNEFLNQDSGKVYTVVLESYTVDIPEGNTEEDTKMVVDTVVKLNLQKLGVAATSAPMHDDE
With B1, in experiment [1], the “NaCl resistance of aba2 mutant seed germination” value was “suppressed” and the “paclobutrazol resistance of aba2 mutant seed germination” value is listed as “suppressed”. The “levels of ABA-regulated genes (Em6, LEA, Rd29b)” value in experiment [2] is listed as “elevated levels of ABA-regulated genes”.
